# Results taken from FireProtDB.
# Several values for one entry are separate records, joined by “and”; a condition that tells them apart may be missing. Equal values may be shown once.
# B1: AP-4 complex subunit mu-1, O00189 (parent)
# chain: MISQFFILSSKGDPLIYKDFRGDSGGRDVAELFYRKLTGLPGDESPVVMHHHGRHFIHIRHSGLYLVVTTSENVSPFSLLELLSRLATLLGDYCGSLGEGTISRNVALVYELLDEVLDYGYVQTTSTEMLRNFIQTEAVVSKPFSLFDLSSVGLFGAETQQSKVAPSSAASRPVLSSRSDQSQKNEVFLDVVERLSVLIASNGSLLKVDVQGEIRLKSFLPSGSEMRIGLTEEFCVGKSELRGYGPGIRVDEVSFHSSVNLDEFESHRILRLQPPQGELTVMRYQLSDDLPSPLPFRLFPSVQWDRGSGRLQVYLKLRCDLLSKSQALNVRLHLPLPRGVVSLSQELSSPEQKAELAEGALRWDLPRVQGGSQLSGLFQMDVPGPPGPPSHGLSTSASPLGLGPASLSFELPRHTCSGLQVRFLRLAFRPCGNANPHKWVRHLSHSDAYVIRI
# B2: Gamma-crystallin D, P07320 (parent)
# chain: MGKITLYEDRGFQGRHYECSSDHPNLQPYLSRCNSARVDSGCWMLYEQPNYSGLQYFLRRGDYADHQQWMGLSDSVRSCRLIPHSGSHRIRLYEREDYRGQMIEFTEDCSCLQDRFRFNEIHSLNVLEGSWVLYELSNYRGRQYLLMPGDYRRYQDWGATNARVGSLRRVIDFS
# B3: Beta-crystallin B2, P02522 (parent)
# chain: MASDHQTQAGKPQPLNPKIIIFEQENFQGHSHELNGPCPNLKETGVEKAGSVLVQAGPWVGYEQANCKGEQFVFEKGEYPRWDSWTSSRRTDSLSSLRPIKVDSQEHKITLYENPNFTGKKMEVIDDDVPSFHAHGYQEKVSSVRVQSGTWVGYQYPGYRGLQYLLEKGDYKDSGDFGAPQPQVQSVRRIRDMQWHQRGAFHPSS
# B4: Triosephosphate isomerase, P00943 (parent)
# chain: MRKPIIAGNWKMHKTLAEAVQFVEDVKGHVPPADEVISVVCAPFLFLDRLVQAADGTDLKIGAQTMHFADQGAYTGEVSPVMLKDLGVTYVILGHSERRQMFAETDETVNKKVLAAFTRGLIPIICCGESLEEREAGQTNAVVASQVEKALAGLTPEQVKQAVIAYEPIWAIGTGKSSTPEDANSVCGHIRSVVSRLFGPEAAEAIRIQYGGSVKPDNIRDFLAQQQIDGPLVGGASLEPASFLQLVEAGRHE
# B5: Tryptophan synthase alpha chain, P0A877 (parent)
# chain: MERYESLFAQLKERKEGAFVPFVTLGDPGIEQSLKIIDTLIEAGADALELGIPFSDPLADGPTIQNATLRAFAAGVTPAQCFEMLALIRQKHPTIPIGLLMYANLVFNKGIDEFYAQCEKVGVDSVLVADVPVEESAPFRQAALRHNVAPIFICPPNADDDLLRQIASYGRGYTYLLSRAGVTGAENRAALPLNHLVAKLKEYNAAPPLQGFGISAPDQVKAAIDAGAAGAISGSAIVKIIEQHINEPEKMLAALKVFVQPMKAATRS
# Variants of: B1
# Settings: Homo sapiens; pH 7.4; Thermal; DSC; structure 3L81; whole UniProt chain shown
Variant,Tm,"change of melting temperature, mutant - wild type (higher = more stable)"
MISQFFILSSKGDPLIYKDFRGDSGGRDVAELFYRKLTGLPGDESPVVMHHHGRHFIHIRHSGLYLVVTTSENVSPFSLLELLSRLATLLGDYCGSLGEGTISRNVALVYELLDEVLDYGYVQTTSTEMLRNFIQTEAVVSKPFSLFDLSSVGLFGAETQQSKVAPSSAASRPVLSSRSDQSQKNEVFLDVVERLSVLIASNGSLLKVDVQGEIRLKSFLPSGSEMRIGLTEEFCVGKSELRGYGPGIRVDEVSFHSSVNLDEFESHRILRLQPPQGELTVMDYQLSDDLPSPLPFRLFPSVQWDRGSGRLQVYLKLRCDLLSKSQALNVRLHLPLPRGVVSLSQELSSPEQKAELAEGALRWDLPRVQGGSQLSGLFQMDVPGPPGPPSHGLSTSASPLGLGPASLSFELPRHTCSGLQVRFLRLAFRPCGNANPHKWVRHLSHSDAYVIRI [R283D],52.8 °C,-3 °C
MISQFFILSSKGDPLIYKDFRGDSGGRDVAELFYRKLTGLPGDESPVVMHHHGRHFIHIRHSGLYLVVTTSENVSPFSLLELLSRLATLLGDYCGSLGEGTISRNVALVYELLDEVLDYGYVQTTSTEMLRNFIQTEAVVSKPFSLFDLSSVGLFGAETQQSKVAPSSAASRPVLSSRSDQSQKNEVFLAVVERLSVLIASNGSLLKVDVQGEIRLKSFLPSGSEMRIGLTEEFCVGKSELRGYGPGIRVDEVSFHSSVNLDEFESHRILRLQPPQGELTVMRYQLSDDLPSPLPFRLFPSVQWDRGSGRLQVYLKLRCDLLSKSQALNVRLHLPLPRGVVSLSQELSSPEQKAELAEGALRWDLPRVQGGSQLSGLFQMDVPGPPGPPSHGLSTSASPLGLGPASLSFELPRHTCSGLQVRFLRLAFRPCGNANPHKWVRHLSHSDAYVIRI [D190A],50.9 °C,-4.9 °C

# Variants of: B2
# Settings: Homo sapiens; pH 7; Thermal; ANS fluorescence; PBS; transition: 2; reversible: yes; structure 1HK0; whole UniProt chain shown
Variant,Tm,"change of melting temperature, mutant - wild type (higher = more stable)"
G61C,69.6 °C,-7 °C

# Same assay, conditions: Homo sapiens; pH 7; Thermal; CD; PBS; transition: 2; reversible: yes; structure 1HK0; whole UniProt chain shown
Variant,Tm,"change of melting temperature, mutant - wild type (higher = more stable)"
G61C,73.9 °C,-6.1 °C

# Same assay, conditions: Homo sapiens; pH 7; Thermal; Fluorescence; PBS; transition: 2; reversible: yes; structure 1HK0; whole UniProt chain shown
row,Variant,Tm
1,G61C,74.3 °C

# Same assay, conditions: Homo sapiens; pH 7; Thermal; light scattering; PBS; transition: 2; reversible: yes; structure 1HK0; whole UniProt chain shown
row,Variant,Tm
1,G61C,75.1 °C

# Variants of: B3
# Settings: Bos taurus; pH 7.2; Thermal; fluorescence; sodium phospahte 20 mM; NaCl; transition: 2; structure 2BB2; whole UniProt chain shown
Variant,Tm,"change of melting temperature, mutant - wild type (higher = more stable)"
MASDHQTQAGKPQPLNPKIIIFEQENFQGHSHELNGPCPNLKETGVEKAGSVLVQAGPCVGYEQANCKGEQFVFEKGEYPRWDSWTSSRRTDSLSSLRPIKVDSQEHKITLYENPNFTGKKMEVIDDDVPSFHAHGYQEKVSSVRVQSGTWVGYQYPGYRGLQYLLEKGDYKDSGDFGAPQPQVQSVRRIRDMQWHQRGAFHPSS [W59C],46.8 °C,-10 °C

# Variants of: B4
# Settings: Geobacillus stearothermophilus; pH 7.6; Thermal; DSC; TEA 100 mM; structure 1BTM; whole UniProt chain shown
Variant,Tm,"change of melting temperature, mutant - wild type (higher = more stable)"
MRKPIIAGNWKMNKTLAEAVQFVEDVKGHVPPADEVISVVCAPFLFLDRLVQAADGTDLKIGAQTMHFADQGAYTGEVSPVMLKDLGVTYVILGHSERRQMFAETDETVNKKVLAAFTRGLIPIICCGESLEEREAGQTNAVVASQVEKALAGLTPEQVKQAVIAYEPIWAIGTGKSSTPEDANSVCGHIRSVVSRLFGPEAAEAIRIQYGGSVKPDNIRDFLAQQQIDGPLVGGASLEPASFLQLVEAGRHE [H13N],77 °C,1 °C

# Variants of: B5
# Settings: Escherichia coli (strain K12); pH 7.8; 25 °C; Urea; Fluorescence; Potassium phosphate 10 mM; reversible: yes; structure 1WQ5; whole UniProt chain shown
row,Variant,unfolding free energy
1,MERYESLFAQLKERKEGAFVPFVTLGDPGIEQSLKIIDTLIEAGADALELGIPFSDPLADGPTIQNATLRAFAAGVTPAQCFEMLALIRQKHPTIPIGLLMYANLVFNKGIDEFYAQCEKVGVDSVLVADVPVEESAPFRQAALRHNVAPIFICPPNADDDLLRQIASYGRGYTYLLSRAGVTGAENRAALPLNHLVAKLKEYNAAPPLQGFGISAPDQVKAAIDAGAAGAISGSAIVKIIEQHINEPEKMLAALKVWVQPMKAATRS [F258W],7 kcal/mol

# Same assay, conditions: Escherichia coli (strain K12); pH 7.8; 25 °C; Urea; Fluorescence; Potassium phosphate 10 mM; transition: 3; reversible: yes; structure 1WQ5; whole UniProt chain shown
row,Variant,unfolding free energy
1,MERYESLFAQLKERKEGAFVPFVTLGDPGIEQSLKIIDTLIEAGADALELGIPFSDPLADGPTIQNATLRAFAAGVTPAQCFEMLALIRQKHPTIPIGLLMYANLVFNKGIDEFYAQCEKVGVDSVLVADVPVEESAPWRQAALRHNVAPIFICPPNADDDLLRQIASYGRGYTYLLSRAGVTGAENRAALPLNHLVAKLKEYNAAPPLQGFGISAPDQVKAAIDAGAAGAISGSAIVKIIEQHINEPEKMLAALKVFVQPMKAATRS [F139W],5.6 kcal/mol and 4.9 kcal/mol

# Same assay, conditions: Escherichia coli (strain K12); pH 9; Thermal; DSC; Sodium tetraborate 1 mM; reversible: yes(>70%); structure 1WQ5; whole UniProt chain shown
Variant,Tm,"change of melting temperature, mutant - wild type (higher = more stable)"
MERYESLFAQLKERKEGAFVPFVTLGDPGIEQSLKIIDTLIEAGADALELGIPFSDPLADGPTIQNATLRAFAAGVTPAQCFEMLALIRQKHPTIPIGLLMYANLVFNNGIDEFYAQCEKVGVDSVLVADVPVEESAPFRQAALRHNVAPIFICPPNADDDLLRQIASYGRGYTYLLSRAGVTGAENRAALPLNHLVAKLKEYNAAPPLQGFGISAPDQVKAAIDAGAAGAISGSAIVKIIEQHINEPEKMLAALKVFVQPMKAATRS [K109N],52.5 °C,-1.5 °C

# Same assay, conditions: Escherichia coli (strain K12); pH 7; 25.8 °C; GdnHCl; CD; Potassium phosphate 0.01 M; reversible: yes; structure 1WQ5; whole UniProt chain shown
Variant,ddG of mutation (higher = less stable),unfolding free energy
MERYESLFAQLKERKEGAFVPFVTLGDPGIEQSLKIIDTLIEAGADALMLGIPFSDPLADGPTIQNATLRAFAAGVTPAQCFEMLALIRQKHPTIPIGLLMYANLVFNKGIDEFYAQCEKVGVDSVLVADVPVEESAPFRQAALRHNVAPIFICPPNADDDLLRQIASYGRGYTYLLSRAGVTGAENRAALPLNHLVAKLKEYNAAPPLQGFGISAPDQVKAAIDAGAAGAISGSAIVKIIEQHINEPEKMLAALKVFVQPMKAATRS [E49M],-4.6 kcal/mol,13.4 kcal/mol
